Measured values taken from US20170210813A1 (Regeneron, published 2017).
One block for each binder: values may come before it.

What was measured:
[1] = biological target: full length human PDGFR-beta on HEK293 cells (human, UniProt P09619 33-1106); assay: cell-based or functional assay
[2] = biological target: T1, hPDGFRb.mmh (human, UniProt P09619 33-531); assay: SPR, mAb captured, 25 C
T1 construct: Soluble monomeric construct; also called soluble human PDGFR-beta.mmh
Experimental: (§1) Antibodies, expressed as either mouse Fc (prefix H1M; H2M) or human Fc (prefix H4H), were captured on their respective anti-Fc sensor surfaces (Mab capture format). […] Kinetic association (kₐ) and dissociation (kd) rate constants were determined by processing and fitting the data to a 1:1 binding model using Scrubber 2.0 curve fitting software.

[3] = biological target: T2, Macaca fascicularis PDGFRb.mmh (Macaca fascicularis); assay: SPR, mAb captured, 25 C
T2 construct: Soluble monomeric construct; also called mfPDGFRb.mmh
T2 chain: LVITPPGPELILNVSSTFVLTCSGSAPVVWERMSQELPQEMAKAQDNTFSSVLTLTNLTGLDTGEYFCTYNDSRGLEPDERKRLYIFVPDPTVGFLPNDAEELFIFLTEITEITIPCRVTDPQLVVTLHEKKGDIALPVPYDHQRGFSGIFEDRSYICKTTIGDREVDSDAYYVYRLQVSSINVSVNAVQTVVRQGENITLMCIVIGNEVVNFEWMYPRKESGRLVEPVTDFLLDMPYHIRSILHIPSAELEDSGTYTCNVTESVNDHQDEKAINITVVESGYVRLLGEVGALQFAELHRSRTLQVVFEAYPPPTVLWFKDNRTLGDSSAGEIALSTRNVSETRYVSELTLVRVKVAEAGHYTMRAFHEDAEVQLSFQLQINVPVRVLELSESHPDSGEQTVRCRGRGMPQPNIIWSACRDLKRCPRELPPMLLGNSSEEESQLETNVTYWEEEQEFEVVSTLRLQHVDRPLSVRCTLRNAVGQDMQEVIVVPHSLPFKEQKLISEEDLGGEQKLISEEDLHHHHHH
Experimental: as §1

[4] = biological target: T3, human PDGFRb.hFc (human); assay: SPR, mAb captured, 25 C
T3 construct: Soluble dimeric construct with human Fc; also called hPDGFRb.hFc
Experimental: as §1

[5] = biological target: T1, hPDGFRb.mmh; assay: SPR, mAb captured, 37 C
Experimental: as §1
Target sequence in this assay (P09619 other isoform, or with tags, fused parts or gaps): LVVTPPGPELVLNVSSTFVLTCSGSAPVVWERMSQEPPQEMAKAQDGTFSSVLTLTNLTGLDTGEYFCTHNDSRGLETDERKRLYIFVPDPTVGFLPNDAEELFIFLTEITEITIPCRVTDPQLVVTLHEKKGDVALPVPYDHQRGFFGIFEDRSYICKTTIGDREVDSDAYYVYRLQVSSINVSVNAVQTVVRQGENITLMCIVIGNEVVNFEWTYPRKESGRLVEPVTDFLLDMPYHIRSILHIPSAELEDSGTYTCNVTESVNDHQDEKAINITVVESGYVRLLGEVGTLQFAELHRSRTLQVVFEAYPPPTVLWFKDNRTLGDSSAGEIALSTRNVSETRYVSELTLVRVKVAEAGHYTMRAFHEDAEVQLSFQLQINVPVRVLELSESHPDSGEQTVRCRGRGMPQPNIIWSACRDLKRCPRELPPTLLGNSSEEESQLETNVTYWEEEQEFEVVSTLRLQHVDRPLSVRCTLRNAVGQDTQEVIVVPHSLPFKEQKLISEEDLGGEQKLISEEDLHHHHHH

[6] = biological target: T2, Macaca fascicularis PDGFRb.mmh; assay: SPR, mAb captured, 37 C
Experimental: as §1

[7] = biological target: T3, human PDGFRb.hFc; assay: SPR, mAb captured, 37 C
Experimental: as §1

[8] = biological target: T1, hPDGFRb.mmh; assay: blocking ELISA, biot-hPDGFRb.mmh to coated PDGF-BB
Experimental: The equilibrated PDGFR-beta/antibody solutions were added to ligand-coated plates, allowed to incubate for 1 hr, and washed. Levels of bound biot-hPDGFR-beta.mmh were detected using HRP conjugated streptavidin. Data were analyzed using Prism software and IC₅₀ values were calculated as the amount of antibody required to achieve 50% reduction of hPDGFR-beta-mmh bound to ligand. Maximum blocking values were also calculated and reflect the ability of the antibody to block relative to baseline. The absorbance measured at the constant amount of 250 pM biot-hPDGFR-beta-mmh on the dose curve is defined as 0% blocking and the absorbance with no added PDGFR-beta is defined as 100%. The absorbance of the wells containing the highest antibody concentration determined the maximum blocking percent.
Target sequence in this assay (P09619 other isoform, or with tags, fused parts or gaps): as above

Chain of full length human PDGFR-beta on HEK293 cells (P09619 33-1106 limits assumed): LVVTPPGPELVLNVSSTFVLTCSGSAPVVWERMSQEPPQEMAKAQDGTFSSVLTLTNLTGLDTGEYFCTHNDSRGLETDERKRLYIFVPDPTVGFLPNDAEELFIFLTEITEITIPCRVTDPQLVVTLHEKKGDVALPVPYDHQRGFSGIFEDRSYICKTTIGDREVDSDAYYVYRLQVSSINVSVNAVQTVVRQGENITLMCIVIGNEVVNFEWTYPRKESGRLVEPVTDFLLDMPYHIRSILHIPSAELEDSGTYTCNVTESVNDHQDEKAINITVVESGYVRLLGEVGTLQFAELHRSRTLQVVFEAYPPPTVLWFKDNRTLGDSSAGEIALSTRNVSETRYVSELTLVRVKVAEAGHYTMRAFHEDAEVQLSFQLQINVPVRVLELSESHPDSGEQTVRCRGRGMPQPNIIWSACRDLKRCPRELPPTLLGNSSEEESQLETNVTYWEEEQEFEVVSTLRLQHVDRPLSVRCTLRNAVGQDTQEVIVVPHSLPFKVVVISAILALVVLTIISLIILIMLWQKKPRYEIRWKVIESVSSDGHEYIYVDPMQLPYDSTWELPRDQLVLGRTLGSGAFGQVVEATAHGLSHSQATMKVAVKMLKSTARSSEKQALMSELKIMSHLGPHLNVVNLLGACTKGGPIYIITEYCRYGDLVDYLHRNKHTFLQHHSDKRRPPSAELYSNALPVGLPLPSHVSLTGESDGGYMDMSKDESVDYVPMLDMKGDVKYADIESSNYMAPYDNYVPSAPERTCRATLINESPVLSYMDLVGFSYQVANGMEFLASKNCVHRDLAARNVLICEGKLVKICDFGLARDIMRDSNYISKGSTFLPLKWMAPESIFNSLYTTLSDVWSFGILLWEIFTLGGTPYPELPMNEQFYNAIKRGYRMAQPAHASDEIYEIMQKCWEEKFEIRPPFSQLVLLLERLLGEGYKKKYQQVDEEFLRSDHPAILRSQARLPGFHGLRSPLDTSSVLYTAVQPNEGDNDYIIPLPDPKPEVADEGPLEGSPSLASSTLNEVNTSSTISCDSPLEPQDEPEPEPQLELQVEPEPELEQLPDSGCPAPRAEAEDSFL

IC50, blocking PDGF-BB (250 pM) activation, SRE-luciferase [1]: 1.2e-09 M
IC50, blocking PDGF-DD (400 pM) activation, SRE-luciferase [1]: 1.1e-09 M
Kd [2]: 1.54 nM
koff [2]: 0.000596 s⁻¹
kon [2]: 386000 M⁻¹ s⁻¹
t1/2 [2]: 19 min
Kd [3]: 68.9 nM
koff [3]: 0.0094 s⁻¹
kon [3]: 136000 M⁻¹ s⁻¹
t1/2 [3]: 1.2 min
Kd [4]: 0.219 nM
koff [4]: 6.22e-05 s⁻¹
kon [4]: 280000 M⁻¹ s⁻¹
t1/2 [4]: 186 min
Kd [5]: 2.34 nM
koff [5]: 0.00171 s⁻¹
kon [5]: 733000 M⁻¹ s⁻¹
t1/2 [5]: 7 min
Kd [6]: 95.6 nM
koff [6]: 0.0267 s⁻¹
kon [6]: 280000 M⁻¹ s⁻¹
t1/2 [6]: 0.4 min
Kd [7]: 0.206 nM
koff [7]: 7.66e-05 s⁻¹
kon [7]: 374000 M⁻¹ s⁻¹
t1/2 [7]: 151 min
% Maximum Blocking [8]: -13%
B1: H4H3098S (antibody, human IgG4, V domains shown)
VH: EVQLVESGGGVVQPGRSLRLSCAASGFTFSNYGMHWVRQAPGKGLEWVTVIWYDGSYKYYADSVKGRFTISRDNSKNRLYLQMNSLRAEDTAVYYCARGELGDAFDIWGQGTMVTVSS
VL: DIQMTQSPSTLSASVGDRLTITCRASQSISTWLAWYQQKPGKAPTLLIYKASSLESGVPSRFSGSGSGTDFTLTISSLQPDDFATYYCQQYKTSWTFGQGTKLEIKR
notes: human IgG4 Fc (H4H prefix)

IC50, blocking PDGF-BB (250 pM) activation, SRE-luciferase [1]: 7.4e-10 M
IC50, blocking PDGF-DD (400 pM) activation, SRE-luciferase [1]: 5.2e-10 M
Kd [2]: 2.49 nM
koff [2]: 0.000744 s⁻¹
kon [2]: 299000 M⁻¹ s⁻¹
t1/2 [2]: 16 min
Kd [3]: 4.65 nM
koff [3]: 0.000882 s⁻¹
kon [3]: 190000 M⁻¹ s⁻¹
t1/2 [3]: 13 min
Kd [4]: 0.686 nM
koff [4]: 0.000215 s⁻¹
kon [4]: 314000 M⁻¹ s⁻¹
t1/2 [4]: 54 min
Kd [5]: 8.49 nM
koff [5]: 0.00335 s⁻¹
kon [5]: 394000 M⁻¹ s⁻¹
t1/2 [5]: 3 min
Kd [6]: 9.26 nM
koff [6]: 0.00345 s⁻¹
kon [6]: 372000 M⁻¹ s⁻¹
t1/2 [6]: 3 min
Kd [7]: 2.08 nM
koff [7]: 0.000741 s⁻¹
kon [7]: 356000 M⁻¹ s⁻¹
t1/2 [7]: 16 min
% Maximum Blocking [8]: 86%
IC50 [8]: 0.17 nM
B2: H4H3106S (antibody, human IgG4, V domains shown)
VH: QVQLVESGGGLVQPGGSLRLSCAASGFTFSSYWMSWVRQVPGKGLEWVANMNQDGTEKYYVDSVKGRLTISRENVKNSLYLQMNGLRAEDTAVYYCARDLVPPRQGDYYYYFGMDVWGHGTMVTVSS
VL: AIQMTQSPSTLSASVGDIVTITCRASQSISDWLAWYQQKPGKAPKLLIFKASSLESGVPSRFSGSGSGTDFTLTISSLQPDDFATYYCQQYNSYSRTFGQGTKVDIK
notes: human IgG4 Fc (H4H prefix)

binding result [2]: no binding
binding result [3]: no binding
binding result [4]: no binding
% Maximum Blocking [8]: 5%
B3: H4H3097S (antibody, human IgG4, V domains shown)
VH: QVQLVESGAEMKKPGASVKVSCKASGYTFTDYGINWVRQAPGQGLEWMGWVSGYNGNTVFAQKIQGRVTMTTDTSTSTAYMELRSLRSDDTAVYFCARISVRGHSYYHGMGVWGQGTTVTVSS
VL: AIRMTQSPSSLSASVGDRVTITCRASQDINSYLAWFQQKPGKAPKSLIYTASSLQSGVPSKFSGSGSGTDFTLTISSLQPEDFATYYCQQYNTYPYTFGQGTKVESK
notes: human IgG4 Fc (H4H prefix)
